From PMC10770391, “Site-selective chlorination of pyrrolic heterocycles by flavin dependent enzyme PrnC” (Communications Chemistry, 2024)

Substrate: Nc1c(Cl)cccc1-c1cc[nH]c1
Test: purified protein
Format: biochemical, Pseudomonas fluorescens
Settings: E. coli Fre 2.5 μM, FAD 1 μM, MgCl2 10 mM, NADH 2.5 mM, 20 mM Tris pH 7.4, PrnC 2.5 μM, chlorination

B1: PrnC (NT11-PrnC-6His; native PrnC) (Pseudomonas fluorescens) (protein)
chain: MTQKSPANEHDSNHFDVIILGSGMSGTQMGAILAKQQFRVLIIEESSHPRFTIGESSIPETSLMNRIIADRYGIPELDHITSFYSTQRYVASSTGIKRNFGFVFHKPGQEHDPKEFTQCVIPELPWGPESHYYRQDVDAYLLQAAIKYGCKVHQKTTVTEYHADKDGVAVTTAQGERFTGRYMIDCGGPRAPLATKFKLREEPCRFKTHSRSLYTHMLGVKPFDDIFKVKGQRWRWHEGTLHHMFEGGWLWVIPFNNHPRSTNNLVSVGLQLDPRVYPKTDISAQQEFDEFLARFPSIGAQFRDAVPVRDWVKTDRLQFSSNACVGDRYCLMLHANGFIDPLFSRGLENTAVTIHALAARLIKALRDDDFSPERFEYIERLQQKLLDHNDDFVSCCYTAFSDFRLWDAFHRLWAVGTILGQFRLVQAHARFRASRNEGDLDHLDNDPPYLGYLCADMEEYYQLFNDAKAEVEAVSAGRKPADEAAARIHALIDERDFAKPMFGFGYCITGDKPQLNNSKYSLLPAMRLMYWTQTRAPAEVKKYFDYNPMFALLKAYITTRIGLALKK
notes: N-terminal 11-residue NT11 solubility tag and C-terminal 6His tag, pET-28a(+), expressed in E. coli T7 Express, Ni-NTA purified; dimer by cryo-EM
  Km: 15.8 ± 0.7 µM
  kcat: 0.00767 s⁻¹
